According to publication PMC11261447:

Target: HA-OGT-D4 (D-box mutant R351A/L354A) (UniProt O15294)

decrease in ubiquitination level of HA-OGT-D4 against HA-OGT-WT in 293T cells transfected with Myc-Ub and Flag-CDC20 (anti-HA precipitates blotted with anti-Myc): 50%
Substance: Flag-CDC20 (from UniProt Q12834 1-499) (natural protein)
